Results on one substance are retold here after IntAct's records for PubMed 20228790.

In the assay the target is PRKCB, P05771-1.
Sequence of PRKCB, P05771-1 (P05771 whole entry, looked up): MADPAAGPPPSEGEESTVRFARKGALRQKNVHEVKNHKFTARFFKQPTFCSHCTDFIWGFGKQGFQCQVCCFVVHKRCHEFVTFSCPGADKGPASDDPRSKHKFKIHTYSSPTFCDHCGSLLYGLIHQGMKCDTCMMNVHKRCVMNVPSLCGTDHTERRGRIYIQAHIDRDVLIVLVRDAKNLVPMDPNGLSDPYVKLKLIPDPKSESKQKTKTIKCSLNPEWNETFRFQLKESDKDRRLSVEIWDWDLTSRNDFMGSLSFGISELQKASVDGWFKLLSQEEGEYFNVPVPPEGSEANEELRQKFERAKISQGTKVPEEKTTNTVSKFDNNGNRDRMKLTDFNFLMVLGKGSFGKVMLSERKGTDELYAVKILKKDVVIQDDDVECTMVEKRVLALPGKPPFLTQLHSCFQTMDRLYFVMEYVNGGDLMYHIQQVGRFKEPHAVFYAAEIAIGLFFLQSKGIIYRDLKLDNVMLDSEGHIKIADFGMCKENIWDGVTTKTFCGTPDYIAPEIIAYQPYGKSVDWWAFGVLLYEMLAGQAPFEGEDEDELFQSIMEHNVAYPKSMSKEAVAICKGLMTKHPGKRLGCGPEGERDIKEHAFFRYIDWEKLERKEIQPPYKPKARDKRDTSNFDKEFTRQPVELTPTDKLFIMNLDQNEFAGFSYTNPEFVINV

Consider “Histone H3.1 (Homo sapiens) (from UniProt P68431) T7A”, for which the “effect of a mutation on the interaction” value is “disrupting interaction”.
